Target: T1, IpgC (UniProt P0A2U4 1-155, limits assumed)
T1 construct: Co-expressed with Rhavi-IpaB in E. coli from pETDuet; also called chaperone IpgC
Test: co-expression in E. coli; chaperone retained with the His-tagged fusion on Ni-NTA until the detergent wash
Experimental: DNA fragments encoding of His-SseB and SseA or His-IpaB and IpgC were synthesized and cloned into a pETDuet vector containing Rhavi by restriction enzyme digestion and ligation. Sequence-confirmed plasmids were transformed E. coli T7 shuffle express cells and transformants containing the relevant cloned proteins were grown to OD600=1 at 25° C., and protein expression was induced with 0.2 mM IPTG at 16° C. overnight. Cells were spun down and pellets were resuspended in lysis buffer (20 mM Tris-HCl, 500 mM NaCl, pH8.0) and then lysed by sonication. Supernatant was loaded over a Ni-NTA column and SseA or IpgC was washed off column with 0.05% LDAO in lysis buffer; proteins Rhavi-SseB and Rhavi-IpaB were eluted in imidazole buffer. Protein-containing elutions were combined, purified over a gel-filtration column for dimer fractions.

T1 sequence (P0A2U4 whole entry): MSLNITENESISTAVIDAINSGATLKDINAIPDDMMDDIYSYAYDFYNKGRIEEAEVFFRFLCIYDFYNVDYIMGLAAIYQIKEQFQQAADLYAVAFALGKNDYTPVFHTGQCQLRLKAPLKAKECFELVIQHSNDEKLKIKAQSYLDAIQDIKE

B1: Rhavi-IpaB (rhizavidin fused to Shigella IpaB) (other)
chain: FDASNFKDFSSIASASSSWQNQSGSTMIIQVDSFGNVSGQYVNRAQGTGCQNSPYPLTGRVNGTFIAFSVGWNNSTENCNSATGWTGYAQVNGNNTEIVTSWNLAYEGGSGPAIEQGQDTFQYVPTTENKSLLKDGGGSSHNVSTTTTGFPLAKILASTELGDNTIQAANDAANKLFSLTIADLTANQNINTTNAHSTSNILIPELKAPKSLNASSQLTLLIGNLIQILGEKSLTALTNKITAWKSQQQARQQKNLEFSDKINTLLSETEGLTRDYEKQINKLKNADSKIKDLENKINQIQTRLSELDPESPEKKKLSREEIQLTIKKDAAVKDRTLIEQKTLSIHSKLTDKSMQLEKEIDSFSAFSNTASAEQLSTQQKSLTGLASVTQLMATFIQLVGKNNEESLKNDLALFQSLQESRKTEMERKSDEYAAEVRKAEELNRVMGCVGKILGALLTIVSVVAAAFSGGASLALAAVGLALMVTDAIVQAATGNSFMEQALNPIMKAVIEPLIKLLSDAFTKMLEGLGVDSKKAKMIGSILGAIAGALVLVAAVVLVATVGKQAAAKLAENIGKIIGKTLTDLIPKFLKNFSSQLDDLITNAVARLNKFLGAAGDEVISKQIISTHLNQAVLLGESVNSATQAGGSVASAVFQNSASTNLADLTLSKYQVEQLSKYISEAIEKFGQLQEVIADLLASMSNSQANRTDVAKAILQQTTA
notes: also called IpaB fused to rhizavidin; Rhavi-IpaB carrier protein
binding result: binds

Reference: patent US20250064910A1 (CHILDREN S MEDICAL CENTER, published 2025)
